Changes are numbered by the printed parent chain.
T1: human CD5 on transfected HEK293T cells (human, UniProt P06127 25-495)
T1 construct: whole, on cells; also called huCD5; Human CD5 Cells
T1 sequence (looked up): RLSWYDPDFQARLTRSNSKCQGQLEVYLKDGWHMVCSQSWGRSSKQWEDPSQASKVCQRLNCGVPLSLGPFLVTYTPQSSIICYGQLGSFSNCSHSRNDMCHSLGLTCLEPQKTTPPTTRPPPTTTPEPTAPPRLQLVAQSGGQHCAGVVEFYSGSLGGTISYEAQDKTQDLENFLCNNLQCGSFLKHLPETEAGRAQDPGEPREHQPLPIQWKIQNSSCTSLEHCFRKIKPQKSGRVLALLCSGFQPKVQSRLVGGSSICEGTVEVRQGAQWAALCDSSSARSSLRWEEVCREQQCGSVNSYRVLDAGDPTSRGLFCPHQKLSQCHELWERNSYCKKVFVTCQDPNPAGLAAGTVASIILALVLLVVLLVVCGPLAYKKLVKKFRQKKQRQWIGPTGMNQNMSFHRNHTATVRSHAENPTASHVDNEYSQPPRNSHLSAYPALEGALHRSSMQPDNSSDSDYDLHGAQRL

T2: biotinylated human CD5-HIS (human, UniProt P06127 25-372, biotinylated)
T2 construct: Loaded onto streptavidin Octet pins; also called huCD5; SA-human CD5; not shown: HIS tag
T2 sequence (looked up): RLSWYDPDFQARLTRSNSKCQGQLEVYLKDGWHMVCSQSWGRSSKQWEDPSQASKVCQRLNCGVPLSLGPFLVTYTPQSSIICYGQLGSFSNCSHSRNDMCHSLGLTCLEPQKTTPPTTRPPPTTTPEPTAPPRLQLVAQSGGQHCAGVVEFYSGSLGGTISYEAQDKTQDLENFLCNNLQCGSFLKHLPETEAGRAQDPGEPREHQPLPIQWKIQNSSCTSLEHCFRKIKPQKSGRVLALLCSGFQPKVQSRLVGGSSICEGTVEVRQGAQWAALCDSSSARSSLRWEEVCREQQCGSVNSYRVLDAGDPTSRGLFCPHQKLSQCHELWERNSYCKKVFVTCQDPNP

B1: ABTx327 (VHH)
VHH: QVQLVESGGGLVQPGGSLRLSCVASGGTFSTYGMGWFRQAPGKEREFVAVITGSGVGTQYADSVKDRFTISRENAKNTVYLQMNTLKLEDTAVYYCVSGHRPGWAVIRADAYEYWGQGTQVTVSS
notes: VHH in periplasmic extract of the phage display clone; also called clone 834; not shown: c-myc tag of the phagemid construct (detected with anti-c-myc 9E10)
B2: ABTx318 (VHH)
VHH: QVQLQESGGGSVQAGGSLRLSCAASGRAFSAYAMGWFRQAPGKEREFVAAINWNGDTALRWNGFATRYADSVKGRFTISRVIAKNTVNLQMNSLKPEDTAVYYCAADTVVSGSYYLAARAEDYEYWGQGTQVTVSS
notes: VHH in periplasmic extract of the phage display clone; also called clone 333; not shown: c-myc tag of the phagemid construct (detected with anti-c-myc 9E10)
B3: ABTx321 (VHH)
VHH: QLQLVESGGGLVQPGESLRLSCVVSGDIFSFVGWGWYRQAPGKQREVVAQISTGGLTNYADSVKGRFAISRDNAKRTVYLQMNSLKFEDTAVYYCNVPGHPWGQGTQVTVSS
notes: VHH in periplasmic extract of the phage display clone; also called clone 1043; not shown: c-myc tag of the phagemid construct (detected with anti-c-myc 9E10)
B4: ABTx328 (VHH)
VHH: B3 VHH with L2V, V32I, V47L, S52N, N58D, A68T, V97F, P101S
notes: VHH in periplasmic extract of the phage display clone; also called clone 1050; not shown: c-myc tag of the phagemid construct (detected with anti-c-myc 9E10)
B5: ABTx326 (VHH)
VHH: QVQLVESGGGLVQPGGSLRLSCAASGRTFINYAAGWFRQAPGKEREFVARISRSGGRTDYADSVKGRFTISRDNAKSTVYLQMNSLRPEDTAVYYCAEATVWEFTDGADQYDYWGQGTQVTVSS
notes: VHH in periplasmic extract of the phage display clone; also called clone 199; not shown: c-myc tag of the phagemid construct (detected with anti-c-myc 9E10)
B6: ABTx324 (VHH)
VHH: QVQLVESGGGLVQPGGSVRLSCATSGSIFSTNVMGWYRQAPGKEREFVALIRGGGSTHYADSVKGRFIISRENAKTTVYLQMNGLKPEDTAVYYCVIWLGSPGAMSDYWGQGTQVTVSS
notes: VHH in periplasmic extract of the phage display clone; also called clone 550; not shown: c-myc tag of the phagemid construct (detected with anti-c-myc 9E10)
B7: ABTx320 (VHH)
VHH: QVQLVESGGGLVQAGGSLRLSCAASGPAFSSSGMGWFRQAPGKAREFVASMDWTGGSTYYGDSVKGRFTVSRDNAKMTVHLQMNSLRPEDTAVYYCARGTSGVAAVNLRGFFSWGPGTQVTVSS
notes: VHH in periplasmic extract of the phage display clone; also called clone 157; not shown: c-myc tag of the phagemid construct (detected with anti-c-myc 9E10)
B8: ABTx323 (VHH)
VHH: QVQLQESGGGLVQAGGSLRLSCATSGITSSINVIGWYRQAPGKQRELVALVNSGGQTHYADSVKGRFTISRDNAKNTVFLQMNSLKPEDTAEYYCHGRYGIDNYWGEGTQVTVSS
notes: VHH in periplasmic extract of the phage display clone; also called clone 155; not shown: c-myc tag of the phagemid construct (detected with anti-c-myc 9E10)
B9: ABTx319 (VHH)
VHH: QVQLVESGGGLVQPGGSLRLSCAASGFTFSMYSMSWVRQAPGKRLEWVSSISTGARDTAYADSVKGRFTISRDNADNTLYLHMNNLKPEDTAVYYCANGDLRYGPDGYDYRGQGTQVTVSS
notes: VHH in periplasmic extract of the phage display clone; also called clone 917; not shown: c-myc tag of the phagemid construct (detected with anti-c-myc 9E10)
B10: ABTx322 (VHH)
VHH: QLQLVESGGGLVQPGGSLRLSCAASGSDFLVDATTWFRQAPGNQREFVAIMDIGGVTEYADSVKGRFTISRDHTKNTVYLQMNSLKVEDTAVYYCNTRGLWGQGTLVTVSS
notes: VHH in periplasmic extract of the phage display clone; also called clone 660; not shown: c-myc tag of the phagemid construct (detected with anti-c-myc 9E10)
B11: ABTx329 (VHH)
VHH: QLQLVESGGGLVQPGESLRLSCAASGFSFSRVGMNWYRQAPGKERELVASISSDGSRTNYAHFVKGRFTISRDNVKNMVYLQMNSLKLEDTAVYYCNVPGNSWGQGTQVTVSS
notes: VHH in periplasmic extract of the phage display clone; also called clone 1091; not shown: c-myc tag of the phagemid construct (detected with anti-c-myc 9E10)
B12: ABTx325 (VHH)
VHH: QVQLVESGGGLVQPGGSLRLSCAASGSDASTNNMAWYRQAPGKEREFVALIRTGGSTHVADSMKGRFTISRENAKNTVYLQMNSLKPEDTAVYYCVIWTGSPGALSDYWGQGTQVTVSS
notes: VHH in periplasmic extract of the phage display clone; also called clone 420; not shown: c-myc tag of the phagemid construct (detected with anti-c-myc 9E10)

Experiments:
[1] = biological target: T1, human CD5 on transfected HEK293T cells; assay: flow cytometry, periplasmic extract on transfected HEK293T cells
[2] = biological target: T3, cynomolgus CD5 on transfected HEK293T cells (cynomolgus (Table 8B); rhesus macaque …); assay: as above
T3 construct: whole, on cells; also called Cynomolgus CD5 Cells; rhesus macaque (Macaca mulatta) CD5

[3] = biological target: T2, biotinylated human CD5-HIS; assay: BLI (Octet), biotinylated CD5-HIS on streptavidin pins, periplasmic extract, off-rate
[4] = biological target: T4, biotinylated cynomolgus CD5-HIS (cynomolgus); assay: as above
T4 construct: Loaded onto streptavidin Octet pins; also called CynoCD5; SA-Cyno CD5

[5] = biological target: T2, biotinylated human CD5-HIS; assay: BLI (Octet), biotinylated CD5-HIS on streptavidin pins
[6] = biological target: T4, biotinylated cynomolgus CD5-HIS; assay: as above
[7] = biological target: T2, biotinylated human CD5-HIS; assay: BLI; KD on human CD5 divided by KD on cynomolgus CD5

Binder	percent of cells showing binding [1]	percent of cells showing binding [2]	koff [3]	koff [4]	Kd [5]	koff [5]	kon [5]	Kd [6]	koff [6]	kon [6]	Hu/Cyno KD [7]
B1	68%	71.7%	0.0195 s⁻¹	0.0329 s⁻¹	0.22 nM	3.6e-05 s⁻¹	160000 M⁻¹ s⁻¹	0.78 nM	0.00011 s⁻¹	140000 M⁻¹ s⁻¹	0.3
B2	84.9%	67.1%	0.0138 s⁻¹	0.0546 s⁻¹	2.5 nM	0.00016 s⁻¹	65000 M⁻¹ s⁻¹	2.4 nM	0.00022 s⁻¹	91000 M⁻¹ s⁻¹	1
B3	84.9%	87.7%	0.0077 s⁻¹	0.0136 s⁻¹	0.23 nM	5.2e-05 s⁻¹	220000 M⁻¹ s⁻¹	0.37 nM	8.8e-05 s⁻¹	240000 M⁻¹ s⁻¹	0.6
B4	45.4%	40.7%	7.04e-05 s⁻¹	6.34e-05 s⁻¹	0.36 nM	9.2e-05 s⁻¹	260000 M⁻¹ s⁻¹	0.93 nM	0.00018 s⁻¹	190000 M⁻¹ s⁻¹	0.4
B5	41.6%	58.4%	0.000825 s⁻¹	0.00415 s⁻¹	2 nM	0.00015 s⁻¹	74000 M⁻¹ s⁻¹	2.2 nM	0.00015 s⁻¹	68000 M⁻¹ s⁻¹	0.9
B6	73.3%	73.2%	0.00271 s⁻¹	0.0177 s⁻¹	1.7 nM	0.00017 s⁻¹	99000 M⁻¹ s⁻¹	2.3 nM	0.00016 s⁻¹	71000 M⁻¹ s⁻¹	0.7
B7	80.3%	77.7%	0.00137 s⁻¹	0.000757 s⁻¹	2.8 nM	0.00019 s⁻¹	69000 M⁻¹ s⁻¹	2.6 nM	0.0002 s⁻¹	76000 M⁻¹ s⁻¹	1.1
B8	64.1%	54.6%	0.000138 s⁻¹	0.000347 s⁻¹	1.2 nM	0.00011 s⁻¹	93000 M⁻¹ s⁻¹	1.3 nM	0.00012 s⁻¹	89000 M⁻¹ s⁻¹	0.9
B9	74.8%	62.6%	0.0116 s⁻¹	0.0531 s⁻¹	1.8 nM	0.00013 s⁻¹	72000 M⁻¹ s⁻¹	2.2 nM	0.0002 s⁻¹	94000 M⁻¹ s⁻¹	0.8
B10	70.1%	82.3%	0.000331 s⁻¹	0.0028 s⁻¹	1 nM	0.0001 s⁻¹	95000 M⁻¹ s⁻¹	1.1 nM	0.00011 s⁻¹	97000 M⁻¹ s⁻¹	0.9
B11	72%	66.5%	0.000372 s⁻¹	0.000488 s⁻¹	0.69 nM	9.3e-05 s⁻¹	130000 M⁻¹ s⁻¹	1.6 nM	0.00017 s⁻¹	110000 M⁻¹ s⁻¹	0.4
B12	77.4%	80%	0.0027 s⁻¹	0.0143 s⁻¹	1.5 nM	0.00013 s⁻¹	90000 M⁻¹ s⁻¹	1.8 nM	0.00013 s⁻¹	68000 M⁻¹ s⁻¹	0.8

From patent publication US20260159603A1 (BEAM THERAPEUTICS, published 2026)
